Assay: soluble on expression in E. coli; label from the status in PepcDB or PDB records

Row | Sequence | soluble on expression in E. coli
1 | MAHHHHHHMARSLQDPRLSFYCEQYDHIAHRMNHYVLQFYFEDRTVEIREVTKNRLHLKRAHFPHLNRDDFKVGSSLSLLGGVIKLTAYADEVTRELCGERGEVTAVMFGEQLLPQLGRCLAVLTEECGFVALEMQMAWLPVETAAAYGVPPDLVEGRIVVVKCANTNALQRGIDFMARMPGARAAESVEEVGRWEQIVEKAKEQPVAILGDPNSTVVIIKPHALQKLAGGVIVQQLIDAGLEISGISLTNMTSQQANELLKPYKGVLPDFPDTMRSLMGTVWVLQFVSLDEGVDVVSVAREVCGPFDPVIAKELRPTSIRARFGVDRAHNAVHCCDLHEEGPLYSNFFFRPEDVDE | not soluble
2 | GSDITSLYKKAGSEMNGPRCPVQTVGQWLESIGLPQYENHLMANGFDNVQFMGSNVMEDQDLLEIGILNSGHRQRILQAIQLLPKMRPIGHDGYHPTSVAEWL | soluble
3 | MSNGRAVNGFLLDITGVLYNSIYKSDGVAVPKSAEAVNFLYQHSKVKFLSNAKGNSNRNVARRLQRLGINVREEDVITPAPVVAQYCRENKLRPHLFVRDDVLEYFDGIDTSSPNCVVMGEVEEGFSFDRINRAFRILIDMPKPLLITMGNGKFFQRVDGPCIDVGAFAAALKFSTNCEVLNIGKPSRFYFEQGMNALGMKPEEIVMVGDDLMSDVGGAQACGMRGVQVRTGKWRPDFEKMPVTPDLTADCLYDAVKLIADNGFRL | not soluble
4 | MKKFLALLLSVIIVFSLTACGGKNSGNNSNNSSNNNSSNNTGGKKIKIGMVTDVGGVNDGSFNQSAWEGLQRAQKELGVEVRYAESATDADYAPNIEAFIDEGYDLIICVGYMLADATRKAAEANPNQKFAIIDDASIDLPNVTCLMFEQSQASYLVGLVAGKMTKTNKVGFVVGMVSQTMNEFGYGYLAGVKDANPNATILQFNANSFSSTETGKSAATTMITNGADVIFHAAGGTGLGVIEGCKDAGKWAIGVDSDQSPLAPENILTSAMKRVDNACFDIAKAVKEGNVKPGIITYDLKSAGVDIAPTTTNLPKEVLDYVNQAKQDIINGKITVPKTKAEFEAKYGNIYELDD | soluble
5 | SAAIYSLYIINKSGGLIFYKDCGTKGRMDTNDSLRVASLWHSMHAISQQLSPVNGCSGIELLEADTFDLHCFQSLPGTKFFVVCEPGTPHMESLLRYIYELYTDYVLKNPFYEIEMPIRCELFDINLTQAVQSDRVALLGR | soluble
6 | PLEDWPDDVLASLPRGISRHTVRFVNVDGHVFAIKEIGQKAAYHEYKMLRDLNRLGAPSVQPLAVITGRVDATGQPLTPALVTEHLSFSLPYRAVFSQTSVSRSMRPETATR | not soluble
7 | MGSSHHHHHHDYDIPTTENLYFQGHMATNLKSTAKLVKPIQYDEVIEVERIFADPAFIEQHRQRILASFKDAKESALYHELTHIVIKDNLFSCAMNAIVGYFEFNIDEAELKNVMEGLKRDVIQGAEDNTVQAIAEKIIKKALVFNHLQKEWKVEITDEVVKNVISLYYEKTNQSVREYLDDKQKFEGVRTALLEERMVLETINHFKFHFNLTGQLPN | soluble
8 | MGSDKIHHHHHHMVSRRISEIPISKTMELDAKAKALIKKGEDVINLTAGEPDFPTPEPVVEEAVRFLQKGEVKYTDPRGIYELREGIAKRIGERYKKDISPDQVVVTNGAKQALFNAFMALLDPGDEVIVFSPVWVSYIPQIILAGGTVNVVETFMSKNFQPSLEEVEGLLVGKTKAVLINSPNNPTGVVYRREFLEGLVRLAKKRNFYIISDEVYDSLVYTDEFTSILDVSEGFDRIVYINGFSKSHSMTGWRVGYLISSEKVATAVSKIQSHTTSCINTVAQYAALKALEVDNSYMVQTFKERKNFVVERLKKMGVKFVEPEGAFYLFFKVRGDDVKFCERLLEEKKVALVPGSAFLKPGFVRLSFATSIERLTEALDRIEDFLNSR | soluble
9 | MGHHHHHHHHHHSSGHIEGRHMAAVTLHLRAETKPLEARAALTPTTVKKLIAKGFKIYVEDSPQSTFNINEYRQAGAIIVPAGSWKTAPRDRIIIGLKEMPETDTFPLVHEHIQFAHCYKDQAGWQNVLMRFIKGHGTLYDLEFLENDQGRRVAAFGFYAGFAGAALGVRDWAFKQTHSDDEDLPAVSPYPNEKALVKDVTKDYKEALATGARKPTVLIIGALGRCGSGAIDLLHKVGIPDANILKWDIKETSRGGPFDEIPQADIFINCIYLSKPIAPFTNMEKLNNPNRRLRTVVDVSADTTNPHNPIPIYTVATVFNKPTVLVPTTAGPKLSVISIDHLPSLLPREASEFFSHDLLPSLELLPQRKTAPVWVRAKKLFDRHCARVKRSSRL | soluble
10 | MGSDKIHHHHHHMSDLDRATLLDATGVAKSFGAVRALTDASLHVGAGEVVALMGANGAGKSTFVKILTGALRPDAGRVLIRGEVARTGSPAQARRSGLVPVYQEPSLIPDLDVADNLRLGDTPSDAVLHWMNELGINGLRFDDMISDLPLATLRILDLARALASQPDVLLLDEMTAALPTNLVENVLRVVRAQADAGCGVIYISHRFTEIAELCDSATILRDGRTVGDLQIEPGVENRCVELMLGAKLSLDKRDAGALRQNTGVPRLRASQIAVAPTVSDVSFDLYPGEVLGVVALEGQGQDEVFNVLSGHQKPTGGALQVDGTSVSFSHPADAIAAGLSYVPGDRAEALLRERSVRENIALPFSARLRDWGPLKTRHERHRVDHAIEKLQIDTRAQGEVQRLSGGNQQKVTIGRWLAHGVRTLLLFDPTRGIDVRTKRQIYPLVRELAEQGAAVLFYTSELDEIPLACDRAIVIFNGRVVNVVNAADATEEVLMRAAYGLTDVSAAS | not soluble
11 | MIEADYLVIGAGIAGASTGYWLSAHGRVVVLEREAQPGYHSTGRSAAHYTVAYGTPQVRALTAASRAFFDNPPAGFCEHPLLSPRPEMVVDFSDDPEELRRQYESGKALVPQMRLLDAEQACSIVPVLRRDKVFGATYDPTGADIDTDALHQGYLRGIRRNQGQVLCNHEALEIRRVDGAWEVRCDAGSYRAAVLVNAAGAWCDAIAGLAGVRPLGLQPKRRSAFIFAPPPGIDCHDWPMLVSLDESFYLKPDAGMLLGSPANADPVEAHDVQPEQLDIATGMYLIEEATTLTIRRPEHTWAGLRSFVADGDLVAGYAANAEGFFWVAAQGGYGIQTSAAMGEASAALIRHQPLPAHLREHGLDEAMLSPRRLSPLEHHHHHH | not soluble
12 | GSEQQDLDDLAQVILSAVTSNTDTSKSARAQALSTALASSLADLLISESSGSSYQTQISALTNILSDCFVTTTGSNNPAFVSRVQTLIAVLSQSSSNAISGATGGSAFAQSQAFQQSA | soluble
13 | MEIGVPKEIKNQEFRVGLSPSSVRTLVEAGHTVFIETQAGIGAGFADQDYVQAGAQVVPSAKDAWSREMVVKVKEPLPAEYDLMQKDQLLFTYLHLAAARELTEQLMRVGLTAIAYETVELPNRSLPLLTPMSIIAGRLSVQFGARFLERQQGGRGVLLGGVPGVKPGKVVILGGGVVGTEAAKMAVGLGAQVQIFDINVERLSYLETLFGSRVELLYSNSAEIETAVAEADLLIGAVLVPGRRAPILVPASLVEQMRTGSVIVDVAVDQGGCVETLHPTSHTQPTYEVFGVVHYGVPNMPGAVPWTATQALNNSTLPYVVKLANQGLKALETDDALAKGLNVQAHRLVHPAVQQVFPDLA | soluble
14 | MSTSTLQSEQSMEIITPPADIGTRTLVDKAAQFVSKKGLEFETKIIDSYPTDAKFNFLRSTADPCHTYYKHKLAEYSSQNQDGATDESDIKIFHAPPNVTTTAIVETTSCLVSQFGSEFEMMVKDSNTDDARFNFLKSSEDPYNVLYKQKLDEYSLDPRDAYYQHKLAESISKYHREATPKLVLPNLLQFRLVKEMTFEELDTVKVTAQFVAWYGDDFRGFLMERVMTEPQFEFMKATDYRFSFYNEFVVAYSQVLNPPKYLKDKLRGRAAYTVIGHLLITMSEEEIS | soluble
15 | MENFHFEHRGPRRDRFARERTGRPEGPHRHGHRRGRFGPEGDPGFGPGMHFGRGRGRGGRGRRGDVRSAILLLLTEEPMHGYELIQQIVERSDGVWKPSPGSIYPALSQLEDEGLVLIEKVAGRKTARLTDEGEAFVEANKTELGTPWDDVRESVGRPAEDLRGLIGLLMGAAGQVAAVGDDEQVRRAGEILTEARRAMYRLLAEDDQSEAGKDDTDS | not soluble

Reference: the DeepSol protein solubility set
